The values that follow come from patent publication US20070014776A1, “Identification of adiponutrin-related proteins as esterases and methods of use for the same” (priority 2005, published 2007).

One test relates to 3T3-L1 adipocytes. The test can be described thus: Effect of adiponutrin overexpression on 3T3-L1 lipase activity (free fatty acid and glycerol release). The class given is cell-based, mouse. As for the experimental part: For adenovirus infection, 3T3-L1 cells were cultured in DMEM with 10% FBS at 37° C. with 5% CO2. Two days after the cultures were confluent, the cells were induced to differentiate (defined as day 0) by incubation in DMEM supplemented with 10% FBS, 1 μM dexamethasone (Sigma, St. Louis, Mo.), 0.5 mM isobutylmethylxanthine (Sigma) (MIX), and 1 μg/ml insulin (Sigma). After two days, the medium was replaced with DMEM supplemented with 10% FBS and 1 μg/ml insulin, and cells were then fed every 2 days with the same medium. At day 8 of differentiation, cells grown in 24-well plates were incubated with 500 MOI of adenovirus in OPTI-MEM (Invitrogen, Carlsbad, Calif.) for 2 hours and then DMEM with 10% FBS. After 48 hours, cells were incubated with DMEM with no serum overnight. The next day, cells were washed three times with PBS and incubated with PBS with 2% fatty acid-free BSA (Sigma, St. Louis, Mo.) with 10 μM or 100 nM of isoproterenol (Sigma). When needed, cells were preincubated with 100 nM insulin 30 min prior to isoproterenol treatment. Conditioned medium was taken at the indicated 0-4 hours after isoproterenol treatment and analyzed for free fatty acids and glycerol. Free fatty acids release was measured by using a NEFA-c kit (Wako Chemicals, Richmond, Va.) and glycerol release was measured by using a lipolysis kit (Zen-bio, Research Triangle Park, N.C.).

Test [1] in a line: Lipase assay with DGGR substrate on immunoprecipitated V5-tagged proteins. Particulars: V5-tagged WT vs patatin-like domain mutant (Ser of GXSXG to Ala); FIG. 6. In kind it is biochemical. As for the experimental part:
HEK293 cells were grown in DMEM media supplemented with 10% fetal calf serum at 37° C. in an atmosphere of 5% CO2. Ten cm tissue culture dishes with 90% confluent HEK293 cells were transfected using Lipofectamine 2000 according to the manufacturer's instructions (Invitrogen, Carlsbad, Calif.). Ten μg of plasmid DNA containing the following expression constructs were used: GFP, human adiponutrin, human adiponutrin-c-term-V5, human desnutrin/ATGL-c-term-V5-6His, human GS2-c-term-V5, human GS2-like-c-term-V5-6His, and patatin-like domain mutants of c-term-V5 and c-term-V5-6His tagged constructs. Three days post-transfection, cells were washed with ice cold TBS and harvested. Cells were pelleted by centrifugation at 1000×g for 5 minutes. Supernatant was discarded, and pellets stored at −80° C. until used for assays.
Frozen cells, as described above, were resuspended in 1 ml of lipase reaction buffer (20 mM Tris-HCl, pH 8.0, 150 mM NaCl, 0.53% sodium taurodeoxycholate, 1.33 mM CaCl2) containing complete mini-protein inhibitor tablets (Invitrogen, Carlsbad, Calif.; 1 tablet per 7 ml). The resulting suspensions were then sonicated on ice with 4 bursts of 10 seconds from a probe sonicator. Homogenized lysate was then centrifuged at 1000×g for 10 minutes to remove cell debris. A 50 μl aliquot of the resulting lysate was saved for analysis and the remaining lysate was used for the immunoprecipitation. Anti-V5 mouse monoclonal antibody (7.2 μg; Invitrogen, Carlsbad, Calif.) was added to each lysate and then placed at 4° C. overnight with tumbling. Next, 20 μl of protein-A beads (Repligen) was added to each sample and tumbled at 4° C. for 2 hours. Beads were then pelleted with gentle centrifugation and […] of supernatant was saved for analysis. The beads were washed 4 times with 900 μl of lipase reaction buffer followed by resuspension in 100 μl of lipase reaction buffer.
The lipase assay (Lehner and Verger (1997) Biochemistry 36:1861-68) uses 1,2-o-dilauryl-rac-glycero-3-glutaric acid-(6′-methylresorufin) ester (DGGR) as substrate. DGGR is cleaved by lipase, resulting in an unstable dicarbonic acid ester that is spontaneously hydrolyzed to yield glutaric acid and methylresorufin, a bluish-purple chromophore with peak absorption at 581 nm. The rate of methylresorufin formation is directly proportional to the lipase activity in the sample. Ten μl of whole cell lysate or IP beads were added to the wells of a 96-well plate. After diluting the samples up to 125 μl in lipase reaction buffer, 125 μl of reaction buffer containing DGGR (final concentration 36 μg/ml in a final assay volume of 250 μl per well). After mixing, OD 581 was monitored at 5 minute intervals for 2 hours to assess lipase activity. Lipase activity is plotted as delta-OD 581/sec. […]

For another test, the system named is HEK293 cells. The test can be described thus: [1-14C]-oleic acid incorporation into triglyceride in transfected HEK293 cells. As to conditions: overexpression in HEK293 cells; for intracellular triglycerides: compared to control cells (empty vector), FIG. 7. The class given is cell-based. As for the experimental part:
HEK293 cells were cultured in Dulbecco's modified Eagle's medium (DMEM) that contained 10% FBS at 37° C. with 5% CO2. HEK293 cells grown in 12-well plates to 60-70% confluence were transfected with 0.5 μg of human adiponutrin, desnutrin/ATGL, GS2, or GS2-like expression vector using FuGene (Roche). Empty vector, pADORI1.2 was used as a control. After 48 hours, cells were treated with 4 μM [1-^14C]-oleic acid (204 μCi/ml total; Perkin Elmer) and 16 μM cold oleic acid (Sigma) in serum-free DMEM. After 4 hours, cells were washed twice and incubated further with DMEM with 10% FBS. After 16 hours, lipids were extracted and separated by TLC using hexane/ether/acetic acid (80:20:1). Radioactive lipids were detected and quantitated by Molecular Imager FX (Bio-Rad).

Where [2] appears, read: adenoviral overexpression in 3T3-L1 adipocytes, after treatment with 10 μM isoproterenol, vs GFP, FIG. 8.

As to insulin [reference compound], the isoproterenol-stimulated lipolysis result with 3T3-L1 adipocytes (submaximal isoproterenol, preincubation with 100 nM insulin, FIG. 9) was “decreased”.

B1: desnutrin/ATGL: human desnutrin/adipocyte triglyceride lipase protein, SEQ ID NO:5 (protein, listed as Homo sapiens)
chain: MFPREKTWNISFAGCGFLGVYYVGVASCLREHAPFLVANATHIYGASAGALTATALVTGVCLGEAGAKFIEVSKEARKRFLGPLHPSFNLVKIIRSFLLKVLPADSHEHASGRLGISLTRVSDGENVIISHFNSKDELIQANVCSGFIPVYCGLIPPSLQGVRYVDGGISDNLPLYELKNTITVSPFSGESDICPQDSSTNIHELRVTNTSIQFNLRNLYRLSKALFPPEPLVLREMCKQGYRDGLRFLQRNGLLNRPNPLLALPPARPHGPEDKDQAVESAQAEDYSQLPGEDHILEHLPARLNEALLEACVEPTDLLTTLSNMLPVRLATAMMVPYTLPLESALSFTIRLLEWLPDVPEDIRWMKEQTGSICQYLVMRAKRKLGRHLPSRLPEQVELRRVQSLPSVPLSCAAYREALPGWMRNNLSLGDALAKWEECQRQLLLGLFCTNVAFPPEALRMRAPADPAPAPADPASPQHQPAGPAPLLSTPAPEARPVIGALGL
As for B1, the “rate of lipid hydrolysis, wild-type versus active-site serine to alanine mutant” value in test [1] is “significantly higher”. Moreover, in the test on HEK293 cells, the intracellular triglycerides result is “significant decrease”.

B2: GS2-like: human GS2-like protein, SEQ ID NO:11; adiponutrin family member (protein, listed as Homo sapiens)
chain: MGFLEEEGRWNLSFSGAGYLGAHHVGATECLRQRAPRLLQGARRIYGSSSGALNAVSIVCGKSVDFCCSHLLGMVGQLERLSLSILHPAYAPIEHVKQQLQDALPPDAHVLASQRLGISLTRWPDGRNFLVTDFATCDELIQALVCTLYFPFYCGLIPPEFRGERYIDGALSNNLPFADCPSTITVSPFHGTVDICPQSTSPNLHELNVFNFSFQISTENFFLGLICLIPPSLEVVADNCRQGYLDALRFLERRGLTKEPVLWTLVSKEPPAPADGNWDAGCDQRWKGGLSLNWKVPHVQVKDVPNFEQLSPELEAALKKACTRDPSRWARFWHSGPGQVLTYLLLPCTLPFEYIYFRSRRLVVWLPDVPADLWWMQGLLRNMALEVFSRTKAQLLGPISPPATRVLETSPLQPQIAPHREELGPTHQA
On to B2, for which the “rate of lipid hydrolysis, wild-type versus active-site serine to alanine mutant” value in test [1] is reported as “not affected”. Besides, the intracellular triglycerides entry in the test on HEK293 cells was “decreased intracellular triglycerides significantly”.

B3: GS2: human GS2 protein, SEQ ID NO:8; adiponutrin family member (protein, listed as Homo sapiens)
chain: MKHINLSFAACGFLGIYHLGAASALCRHGKKLVKDVKAFAGASAGSLVASVLLTAPEKIEECNQFTYKFAEEIRRQSFGAVTPGYDFMARLRSGMESILPPSAHELAQNRLHVSITNAKTRENHLVSTFSSREDLIKVLLASSFVPIYAGLKLVEYKGQKWVDGGLTNALPILPVGRTVTISPFSGRLDISPQDKGQLDLYVNIAKQDIMLSLANLVRLNQALFPPSKRKMESLYQCGFDDTVKFLLKENWFE
In the case of B3, the “rate of lipid hydrolysis, wild-type versus active-site serine to alanine mutant” value in test [1] is reported as “significantly higher”. Moreover, in the test on HEK293 cells, the intracellular triglycerides entry is “decreased intracellular triglycerides significantly”.

B4: adiponutrin: human adiponutrin protein, SEQ ID NO:2; patatin-like domain protein of the adiponutrin family, expressed recombinantly (protein, listed as Homo sapiens)
chain: MYDAERGWSLSFAGCGFLGFYHVGATRCLSEHAPHLLRDARMLFGASAGALHCVGVLSGIPLEQTLQVLSDLVRKARSRNIGIFHPSFNLSKFLRQGLGKCLPANVHQLISGKIGISLTRVSDGENVLVSDFRSKDEVVDALVCSCFMPFYSGLIPPSFRGVRYVDGGVSDNVPFIDAKTTITVSPFYGEYDICPKVKSTNFLHVDITKLSLRLCTGNLYLLSRAFVPPDLKVLGEICLRGYLDAFRFLEEKGICNRPQPGLKSSSEGMDPEVAMPSWANMSLDSSPESAALAVRLEGDELLDHLRLSILPWDESILDTLSPRLATALSEEMKDKGGYMSKICNLLPIRIMSYVMLPCTLPVESAIAIVQRLVTWLPDMPDDVLWLQWVTSQVFTRVLMCLLPASRSQMPVSSQQASPCTPEQDWPCWTPCSPEGCPAETKAEATPRSILRSSLNFFLGNKVPAGAEGLSTFPSFSLEKSL
Regarding B4, the “rate of lipid hydrolysis, wild-type versus active-site serine to alanine mutant” value in test [1] is reported as “significantly higher”. For the same molecule, in the test on 3T3-L1 adipocytes (setting [2]), the “release of free fatty acids into the medium” value is recorded as “significantly decreased” and the “release of glycerol into the medium” value is on record as “significantly decreased”. Moreover, the basal lipolysis entry with 3T3-L1 adipocytes (adenoviral overexpression in 3T3-L1 adipocytes, no isoproterenol, FIG. 9) was “no effect”. Moreover, the “inhibition of lipolysis by insulin” value with 3T3-L1 adipocytes (adenoviral overexpression in 3T3-L1 adipocytes, submaximal isoproterenol plus insulin, FIG. 9) is “significantly enhanced”. In the test on HEK293 cells, the intracellular triglycerides entry is given as “unable to demonstrate a decrease”. The triglyceride incorporation result with HEK293 cells (in several experiments (data not shown)) is on record as “trend toward increased triglyceride incorporation”.
